Common to all, as to assay type: cell-based
In assay [1] the test system is rat peritoneal mast cells. Kind of assay: Test 1: histamine release from rat peritoneal mast cells induced by calcium ionophore A23187. To be noted: for Histamine release (Relative %): A23187 5 μM, control (saline) = 100; for activity to promote the release of histamine from mast cells induced by A23187 (in words): 1 to 100 ppm. Here is the method:
This test was performed to study the activity of the peptide of the present invention to promote the release of histamine from rat peritoneal mast cells induced by the calcium ionophore A23187.
Peritoneal cells were collected from Wistar rats after intraperitoneal injection of phosphate-buffered saline (consisting of 120 mM NaCl, 10 mM Na2 PO4, 3 mM KH2 PO4, pH 7.4). Their abdoments were massaged and the buffer containing the cells was recovered. The cells were centrifuged at 300×g for 15 min and washed twice with phosphate-buffered saline. The cells from several rats were pooled for use in the experiments.
Rat peritoneal cells containing about 1×10^5 mast cells per ml were used as the target cells. A 500 μl volume of the cell suspension was incubated with 100 μl volume of the test substance [purified peptide obtained by the method as in Example 1, or human lactoferrin (Sigma Chemical Co.), or bovine lactoferrin (Morinaga Milk industry Co.)] at 37° C. for 3O min. Thereafter, histamine release from the mast cells was induced by the addition of calcium ionophore A23187 (Sigma Chemical Co.) at a final concentration of 5 μM. After 10 min of incubation the cells were centrifuged at 300×g for 15 min and the supernatant was removed and deproteinized by the addition of 2 ml of HClO4 (2%). The deproteinized sample was then centrifuged at 2000×g for 20 min and the histamine content in the supernatant was determined by the fluorophotometric analyser technique (AutoAnalyzer: Technikon). Cells in the presence of phosphate-buffered saline served as control.

For assay [2], the system named is human polymorphonuclear neutrophils. The assay can be described thus: Test 3: leukotriene release from human polymorphonuclear neutrophils induced by calcium ionophore A23187. To be noted: for Leukotriene released (ng) B4 / Leukotriene released (ng) C4 / Leukotriene released (ng) 20-COOH / Leukotriene released (ng) 20-OH: A23187 5 μM; for Leukotriene released (ng) B4: saline control 12; for Leukotriene released (ng) C4: saline control 18; for Leukotriene released (ng) 20-COOH: saline control 31; for Leukotriene released (ng) 20-OH: saline control 55; for Leukotriene released (ng) (Total B4): sum of B4, 20-OH and 20-COOH, saline control 98; for activity to promote the release of leukotriene B4 from polymorphonuclear neutrophils (in words): 1 to 100 ppm. How it is done: This test was performed to study the activity of the peptide of the present invention to promote the release of leukotriene B4 from human polymorphonuclear neutrophils induced by the calcium ionophore A23187.
Human polymorphonuclear neutrophils were prepared by fractionation of leukocytes from heparinized blood of healthy donors on a Ficoll-metrizoategradient followed by dextran sedimentation. The cells were centrifuged at 300×g, and washed three times with phosphate-buffered saline, after which less than 2% of the platelets remained. Erythrocytes were removed by exposing the cells to hypotonic conditions. The purity of the polymorphonuclear neutrophil fraction used was greater than 97% as confirmed by light microscopy.
For analysis of leukotriene release, human neutrophils suspended in phosphate-buffered saline at approximately 1×10^7 cells per ml were used as the target cells. The cells were incubated for 30 min in the presence of test substance [(purified peptide obtained by the method as in Example 1, or human lactoferrin (Sigma Chemical Co.), or bovine lactoferrin (Morinaga Milk Industry Co.)]. Leukotriene release from the neutrophils was then induced by the addition of calcium ionophore A23187 (Sigma chemical Co.) at a final concentration of 5 μM. After 30 min, the supernatants of the stimulated cells were deproteinized by addition of 2 ml of methanol-acetonitrile (1:1) overlaid with nitrogen and frozen for 12 h at -70° C. After centrifugation at 1000×g for 15 min the supernatant was evaporated to dryness in a freeze dryer, suspended in 0.5 ml of methanol-water (30:70), overlaid with nitrogen, and stored overnight at -70° C. The samples were centrifuged at 1000×g and the supernatant was assayed for the presence of leukotrienes by high pressure liquid chromatography using a reverse-phase column of Nucleosil (C18; 5 μm particles) at a column temperature of 40° C. The solvent system was a mixture of phosphate buffer (17 mM K2 HPO4 containing 0.05% EDTA), acetonitrile, and methanol (50:30:20) adjusted to pH 5.0 with phosphoric acid. The absorbance at 280 nm of the column effluent was monitored and recorded. The concentration of each eluted leukotriene was determined from the peak area by means of a computing integrator. The leukotrienes were identified from their retention times with reference to known standards. The minimum detectable quantity was 1 ng in each instance.

Assay [3] concerns rat peritoneal mast cells. Kind of assay: Test 2: histamine release from rat peritoneal mast cells induced by α-toxin-producing Staphylococcus aureus cells. To be noted: for Histamine release (Relative %): S. aureus 121 about 1.0×10^8 cells per ml, control (saline) = 100; for activity to promote the release of histamine from mast cells induced by α-toxin-producing Staphylococcus aureus cells (in words): 1 to 100 ppm. Here is the method:
This test was performed to study the activity of the peptide of the present invention to promote the release of histamine from rat peritoneal mast cells induced by α-toxin-producing Staphylococcus aureus cells.
Staphylococcus aureus 121, an α-toxin-producing strain, was cultured overnight in Brain Heart Infusion broth at 37° C. The bacterial cells were collected by centrifugation at 4000×g for 20 min, washed with phosphate-buffered saline, and suspended in the same buffer for use in the experiment. Rat peritoneal cells were prepared as in Test 1.
The same method as in Test 1 was used, except histamine release from the mast cells was induced by the addition of α-toxin-producing Staphylococcus aureus cells at a final concentration of about 1.0×10^8 cells per ml.

B1: lactoferrin, human: human lactoferrin (Sigma Chemical Co.) (protein, UniProt P02788 20-710, looked up)
Lactotransferrin: GRRRSVQWCAVSQPEATKCFQWQRNMRKVRGPPVSCIKRDSPIQCIQAIAENRADAVTLDGGFIYEAGLAPYKLRPVAAEVYGTERQPRTHYYAVAVVKKGGSFQLNELQGLKSCHTGLRRTAGWNVPIGTLRPFLNWTGPPEPIEAAVARFFSASCVPGADKGQFPNLCRLCAGTGENKCAFSSQEPYFSYSGAFKCLRDGAGDVAFIRESTVFEDLSDEAERDEYELLCPDNTRKPVDKFKDCHLARVPSHAVVARSVNGKEDAIWNLLRQAQEKFGKDKSPKFQLFGSPSGQKDLLFKDSAIGFSRVPPRIDSGLYLGSGYFTAIQNLRKSEEEVAARRARVVWCAVGEQELRKCNQWSGLSEGSVTCSSASTTEDCIALVLKGEADAMSLDGGYVYTAGKCGLVPVLAENYKSQQSSDPDPNCVDRPVEGYLAVAVVRRSDTSLTWNSVKGKKSCHTAVDRTAGWNIPMGLLFNQTGSCKFDEYFSQSCAPGSDPRSNLCALCIGDEQGENKCVPNSNERYYGYTGAFRCLAENAGDVAFVKDVTVLQNTDGNNNEAWAKDLKLADFALLCLDGKRKPVTEARSCHLAMAPNHAVVSRMDKVERLKQVLLHQQAKFGRNGSDCPDKFCLFQSETKNLLFNDNTECLARLHGKTTYEKYLGPQYVAGITNLKKCSTSPLLEACEFLRK
For the molecule B1, the “Histamine release (Relative %)” value in assay [1] (1 ppm test substance) stood at 115 ± 20 Relative %; in assay [1] (10 ppm test substance), 110 ± 10 Relative %; in assay [1] (100 ppm test substance), 100 ± 10 Relative %; in assay [3] (1 ppm test substance) it was 180 ± 5 Relative %; in assay [3] (10 ppm test substance) it was 115 ± 15 Relative %; in assay [3] (100 ppm test substance), 120 ± 20 Relative %. The “activity to promote the release of histamine from mast cells induced by A23187 (in words)” value in assay [1] was “little, if any, such activity”. The results for the “Leukotriene released (ng) B4” value in assay [2] (1 ppm test substance), in assay [2] (10 ppm test substance) and in assay [2] (100 ppm test substance) were 11 ng, 10 ng and 10 ng, respectively. For the same molecule, the “Leukotriene released (ng) C4” value in assay [2] (1 ppm test substance) is 12 ng; in assay [2] (10 ppm test substance), 13 ng; in assay [2] (100 ppm test substance) it was 17 ng. Also, the “Leukotriene released (ng) 20-COOH” value in assay [2] (1 ppm test substance) was 41 ng; in assay [2] (10 ppm test substance), 26 ng; in assay [2] (100 ppm test substance) it was 26 ng. Also, the “Leukotriene released (ng) 20-OH” value in assay [2] (1 ppm test substance) stood at 80 ng; in assay [2] (10 ppm test substance) it was 50 ng; in assay [2] (100 ppm test substance) it was 42 ng. Moreover, the “Leukotriene released (ng) (Total B4)” value in assay [2] (1 ppm test substance) came to 131 ng; in assay [2] (10 ppm test substance), 86 ng; in assay [2] (100 ppm test substance), 76 ng. Also, the “activity to promote the release of leukotriene B4 from polymorphonuclear neutrophils (in words)” value in assay [2] is reported as “little, if any, such activity”. Further, the “activity to promote the release of histamine from mast cells induced by α-toxin-producing Staphylococcus aureus cells (in words)” value in assay [3] is recorded as “little, if any, such activity”.

B2: lactoferrin, bovine: bovine lactoferrin (Morinaga Milk industry Co.) (protein, UniProt P24627 20-708, looked up)
Lactotransferrin: APRKNVRWCTISQPEWFKCRRWQWRMKKLGAPSITCVRRAFALECIRAIAEKKADAVTLDGGMVFEAGRDPYKLRPVAAEIYGTKESPQTHYYAVAVVKKGSNFQLDQLQGRKSCHTGLGRSAGWIIPMGILRPYLSWTESLEPLQGAVAKFFSASCVPCIDRQAYPNLCQLCKGEGENQCACSSREPYFGYSGAFKCLQDGAGDVAFVKETTVFENLPEKADRDQYELLCLNNSRAPVDAFKECHLAQVPSHAVVARSVDGKEDLIWKLLSKAQEKFGKNKSRSFQLFGSPPGQRDLLFKDSALGFLRIPSKVDSALYLGSRYLTTLKNLRETAEEVKARYTRVVWCAVGPEEQKKCQQWSQQSGQNVTCATASTTDDCIVLVLKGEADALNLDGGYIYTAGKCGLVPVLAENRKSSKHSSLDCVLRPTEGYLAVAVVKKANEGLTWNSLKDKKSCHTAVDRTAGWNIPMGLIVNQTGSCAFDEFFSQSCAPGADPKSRLCALCAGDDQGLDKCVPNSKEKYYGYTGAFRCLAEDVGDVAFVKNDTVWENTNGESTADWAKNLNREDFRLLCLDGTRKPVTEAQSCHLAVAPNHAVVSRSDRAAHVKQVLLHQQALFGKNGKNCPDKFCLFKSETKNLLFNDNTECLAKLGGRPTYEEYLGTEYVTAIANLKKCSTSPLLEACAFLTR
Take B2: the “Histamine release (Relative %)” value was found to be 105 ± 25 Relative % in assay [1] (1 ppm test substance); 110 ± 20 Relative % in assay [1] (10 ppm test substance); 125 ± 25 Relative % in assay [1] (100 ppm test substance); 150 ± 10 Relative % in assay [3] (1 ppm test substance); 160 ± 10 Relative % in assay [3] (10 ppm test substance); 110 ± 15 Relative % in assay [3] (100 ppm test substance). For the same molecule, the “activity to promote the release of histamine from mast cells induced by A23187 (in words)” value in assay [1] is reported as “little, if any, such activity”. For the same molecule, the results for the “Leukotriene released (ng) B4” value in assay [2] (1 ppm test substance), in assay [2] (10 ppm test substance) and in assay [2] (100 ppm test substance) were 9 ng, 11 ng and 11 ng, respectively. Besides, the “Leukotriene released (ng) C4” value in assay [2] (1 ppm test substance) amounted to 17 ng; in assay [2] (10 ppm test substance), 15 ng; in assay [2] (100 ppm test substance) it was 15 ng. Further, the “Leukotriene released (ng) 20-COOH” value in assay [2] (1 ppm test substance) is 41 ng; in assay [2] (10 ppm test substance) it was 36 ng; in assay [2] (100 ppm test substance), 35 ng. Also, the “Leukotriene released (ng) 20-OH” value in assay [2] (1 ppm test substance) turned out to be 50 ng; in assay [2] (10 ppm test substance), 60 ng; in assay [2] (100 ppm test substance), 59 ng. Also, the “Leukotriene released (ng) (Total B4)” value in assay [2] (1 ppm test substance) is 100 ng; in assay [2] (10 ppm test substance) it was 107 ng; in assay [2] (100 ppm test substance) it was 105 ng. The “activity to promote the release of leukotriene B4 from polymorphonuclear neutrophils (in words)” value in assay [2] is recorded as “little, if any, such activity”. Also, the “activity to promote the release of histamine from mast cells induced by α-toxin-producing Staphylococcus aureus cells (in words)” value in assay [3] was “little, if any, such activity”.

Values taken from patent US5466669A, “Immunostimulatory agent” (Morinaga Milk Industry Co., Ltd., priority 1993, dated 1995).
